B1: KNK269-derived enzyme: aldehyde oxidase purified from Streptomyces sp. KNK269; three subunits, SEQ ID NOS: 1 to 3 (protein)
chain 1: GADLEPEPVVDEHSTVTLNVNGDPTTLTVDHRTTVLETLRESFGLTGAKKGCDHGQCGACTVLVDGRRVNSCLLLAVAQDGATITTVEGLADGEDLHPVQRAFVERDALQCGFCTPGQICSAVGMLREAADGHPSHVTGPDTAAGPDAATGPGGPVALDADEIRERMSGNIFRCGAYHRIVEAIEDVIE
chain 2: MKPFGYVRPASPDEAVRLCAEGSGARFLGGGTNLVDLMKLGVEAPRVLIDVAGLPLDRVTRTADGGLAIGATVRNSDLAAHPDVTDRYPVLSQALLAGASGQLRNSATTGGNLLQRTRCRYFQDVSKPCNKRLPGSGCPARDGTHRDLAILGHSPECVATNPSDMAVALAALDATVVLLGPEGERAVPLTEFHRLPGENPDQDTAIRTGELITEVVLPPPAPGAATRYRKARDRASFAFALVSVAATLRVDAGRVEHATLAFGGVAHRPWRARRAEAELRGAPATPAVFQHALIAELAEARPLRDNVFKVDLARRLALDVLGELTERQPTRTG
chain 3: MTTRAPQFPGAPVVRREARDKVTGTARYAADRTPAGCLYAWTVPAAVAAGRVTAVRAVDALAVPGVHTVLTHDNAPELREPDDPILAVLQDDRVPHHGWPIALVIAESPEAARTGAGELHVEYARDEHDVTLTEDHPGLYTPEEANGGEPAVRVRGDVERALAASPVQVDATYRMVALHNHPMEPHAATAVRADGHLTVHDSSQGSTKVRESLAQAFGLAADRITVVSEHVGGGFGSKGTTRPQGVLAAMAAQHTGRPVKLVFPRAQLAEVVGHRAPTIQRVRLGADLDGVLTAVSHEVVTQTSTVKEFVEQAAVPARVMYASPHSRTAHRVTALDVPSPSWMRAPGEASGMYALESAMDVLDSALGLDPVELRLRNEPETEPDSGRPFSSRGLAACLRDGAARFGWQDRDPRPAARQEGRWLIGTGVASATYPVLLSRSTASAHATRDGDLSIAVNATDIGTGARTVLAQIAADVLGVAPEALRVDIGSTDLPAAPLAGGSSGTASWGWSVHKAATALAARLAEHRGPLPADGITTTADTGQETGEESPYARHAFGAHFAETAVDAVTGEVRVRRLLGVYAAGRILNERTARSQFTGGMVMGIGMALTEGCGIDPGFGDFTAKDLASYHVPVCADTADIQAHWIEEDDRHLNPMGSKGIGEIGIVGTAAAIGNAVRHATGARLRELPLTTDT
modifications: Streptomyces sp. KNK269; amino acid sequence of subunit gamma of aldehyde oxidase; amino acid sequence of subunit beta of aldehyde oxidase; amino acid sequence of subunit alpha of aldehyde oxidase

What was measured:
[1] = Oxidase activity to glyoxal (H2O2 detection with 4-AA/TOOS/POD, absorbance 555 nm); format: biochemical; conditions: for Activity to glyoxal/activity to glyoxylic acid: 10 mM substrate, 30° C., 100 mM phosphate buffer pH 7; for Relative activity (%): substrate glyoxal (reference = 100), enzymes of the invention
Protocol: When the reaction is catalyzed by oxidase, not only glyoxylic acid but also hydrogen peroxide is produced. Oxidase activity of interest can easily be detected by detecting such hydrogen peroxide.
Specifically, 0.1 ml of cell suspension or enzyme solution is added to 0.9 ml of a 100 mM phosphate buffer (pH 7) having the composition indicated below, and an increase in the absorbance at a wavelength of 555 nm is measured at 30° C. In the present invention, enzyme activity for generating 1 μmol H2O2 per minute is defined as 1 unit.
(§1) The cell-free extract of each of KNK235 and KNK058 obtained by the method described in Example 1 was charged to a Resource Q column (6 ml) that had previously been equilibrated with a 0.05 M phosphate buffer (pH 7), and the enzyme was eluted with a linear concentration gradient of sodium chloride from 0 to 0.5 M, so as to collect active fractions. Roughly purified enzyme solutions of these KNK235 and KNK058 and purified enzymes obtained from Streptomyces sp. KNK269, Microbacterium sp. KNK011, and Cellulosimicrobium cellulans IFO 15516, obtained in Examples 4, 5, and 7, respectively, were measured in terms of their oxidase activity to glyoxal and to glyoxylic acid. Measurement of the enzyme activity was carried out by the following method. That is, 1.0 ml of a reaction solution comprising 10 mM glyoxal or glyoxylic acid, 0.67 mM 4-AA, 1.09 mM TOOS, 2 U/ml POD, and a roughly purified enzyme from KNK235 or KNK058, or a purified enzyme obtained from NKN269, KNK011, or IFO 15516 in Example 4, 5, or 7, was reacted at 30° C. in a 100 mM phosphate buffer (pH 7). Thereafter, an increase in the absorbance at a wavelength of 555 nm was measured.

[2] = Oxidase activity to glyoxylic acid (H2O2 detection with 4-AA/TOOS/POD, absorbance 555 nm); format: biochemical; conditions: substrate glyoxylic acid, relative to glyoxal = 100; enzymes of the invention
Protocol: as §1

[3] = Conversion of glyoxal into glyoxylic acid by purified enzymes, HPLC; format: biochemical; conditions: 0.2 U/ml enzyme, 50 mM glyoxal, 5,000 U/ml catalase, 100 mM Tris-HCl, 30° C., 3 hours
Protocol: Each of the enzymes derived from Streptomyces sp. KNK269, Microbacterium sp. KNK011, Pseudomonas sp. KNK058, and Cellulosimicrobium cellulans IFO 15516, which were obtained in Examples 4, 5, 6, and 7, respectively, was reacted using glyoxal as a substrate. That is, 1 ml of 100 mM Tris-HCl buffer comprising 0.2 U/ml enzyme derived from each of the above strains, 50 mM glyoxal, and 5,000 U/ml catalase, were placed in a test tube. It was then subjected to a shake reaction at 30° C. for 3 hours. After completion of the reaction, the reaction solution was analyzed by high performance liquid chromatography.

[4] = Heat stability of purified enzyme (remaining activity); format: physicochemical; conditions: 0.05 M phosphate buffer pH 7.2, 20 minutes, treatment at 70° C. (FIG. 3)
Protocol: as §1, with “measured. […]” for “measured.”
The present enzyme was treated in a 0.05 M phosphate buffer (pH 7.2) at each temperature from 30° C. to 70° C. for 20 minutes. Thereafter, the remaining activity of the present enzyme was measured using glyoxal as a substrate.

Row | Molecule | Activity to glyoxal/activity to glyoxylic acid [1] | Relative activity (%) [1] | Relative activity (%) [2] | glyoxylic acid generated [3] | remaining activity after heat treatment [4]
1 | IFO15516-derived enzyme: aldehyde oxidase purified from culture supernatant of Cellulosimicrobium cellulans IFO 15516; SEQ ID NOS: 11 and 12 | 100 | 100% | 1% | 26 mM | 
2 | KNK011-derived enzyme: aldehyde oxidase purified from Microbacterium sp. KNK011; SEQ ID NOS: 7 and 8 | 183 | 100% | 0.5% | 25 mM | 
3 | B1 | 1,710 | 100% | 0.1% | 7.6 mM | ≥ 90%

— patent US20070026510A1, “Process for biochemical production of glyoxylic acid” (Kaneka Corporation, priority 2003, published 2007)
